Reference: publication PMC2114114

Biological target: Rat secretory component (rat (endogenous in rat liver)) (UniProt P15083)
Experiment: co-IP

Chain of UniProt P15083 (P15083 19-611): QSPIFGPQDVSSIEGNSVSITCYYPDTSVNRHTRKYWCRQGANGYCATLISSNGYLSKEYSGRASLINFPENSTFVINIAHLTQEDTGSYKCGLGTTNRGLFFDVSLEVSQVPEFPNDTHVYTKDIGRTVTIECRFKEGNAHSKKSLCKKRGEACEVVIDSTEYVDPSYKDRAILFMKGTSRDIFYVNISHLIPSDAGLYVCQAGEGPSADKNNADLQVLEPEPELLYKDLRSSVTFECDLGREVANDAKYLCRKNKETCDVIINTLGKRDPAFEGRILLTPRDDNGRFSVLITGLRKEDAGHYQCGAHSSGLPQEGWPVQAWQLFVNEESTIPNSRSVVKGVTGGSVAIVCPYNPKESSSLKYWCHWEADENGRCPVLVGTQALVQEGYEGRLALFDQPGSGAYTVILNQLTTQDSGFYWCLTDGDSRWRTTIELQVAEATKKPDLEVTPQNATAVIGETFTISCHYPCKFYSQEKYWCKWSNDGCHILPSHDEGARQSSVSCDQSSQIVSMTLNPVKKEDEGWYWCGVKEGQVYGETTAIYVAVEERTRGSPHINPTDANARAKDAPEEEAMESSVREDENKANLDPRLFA

## Human monoclonal polymeric IgA (IgA1 myeloma protein) (from UniProt P01591 23-159) (antibody)
  percent bound to anti-rat SC immunoadsorbent: 92.4%
